Here are results for two molecules from paper PMC9054013, “FCHO controls AP2’s initiating role in endocytosis through a PtdIns(4,5)P2-dependent switch” (Science Advances, 2022).

For assay [1], the target named is T1, AP2 α-appendage (residues 695 to 938) (UniProt P17427 695-938).
T1 construct: AP2 α subunit (α2), appendage, residues 695 to 938; also called α2 ear; pGEX4T2α-appendage; source: E. coli BL21 plyS, purified (GST beads, thrombin, Superdex 200)
Description: ITC; α-appendage or β2-appendage with C block peptides; 100 mM tris pH 7.4, 150 mM NaCl, 0.25 mM TCEP; 12°C; peptides 1 to 5 mM titrated. The settings on record: both partners purified. (In general: ITC needs no label: the signal is the heat of the interaction.)

In assay [2] the target is T2, Cμ2 (μ2 residues 160 to 435) (UniProt P84092 160-435).
T2 construct: AP2 μ2 subunit, C-terminal subdomain, residues 160 to 435; in the chimera crystals Cμ2 carries an N-terminal His6 tag or a thrombin-cleaved GST tag; also called His6μ2 (residues 160 to 435) wt; isolated Cμ2; source: E. coli BL21 plyS, purified (Ni-NTA, Superdex 200)
T2 sequence (looked up): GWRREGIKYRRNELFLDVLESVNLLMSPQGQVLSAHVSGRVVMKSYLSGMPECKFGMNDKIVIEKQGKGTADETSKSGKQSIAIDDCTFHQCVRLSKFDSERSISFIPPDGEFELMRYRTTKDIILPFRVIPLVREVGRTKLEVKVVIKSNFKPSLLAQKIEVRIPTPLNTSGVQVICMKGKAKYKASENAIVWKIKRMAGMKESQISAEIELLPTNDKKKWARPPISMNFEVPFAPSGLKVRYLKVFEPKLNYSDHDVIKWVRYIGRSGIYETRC
Description: ITC; Cμ2 with FCHO2 constructs or peptides; 100 mM tris pH 7.4, 150 mM NaCl, 0.25 mM TCEP; 12°C; Nano ITC. The settings on record: both partners purified.

A value given as a limit tells only on which side of the number the result lay.

In general, Kd refers to the free concentration of one partner at which half of the binding sites on the other are occupied at equilibrium, for simple one-to-one binding. Higher therefore signals a looser complex.

T1 sequence (P17427 695-938): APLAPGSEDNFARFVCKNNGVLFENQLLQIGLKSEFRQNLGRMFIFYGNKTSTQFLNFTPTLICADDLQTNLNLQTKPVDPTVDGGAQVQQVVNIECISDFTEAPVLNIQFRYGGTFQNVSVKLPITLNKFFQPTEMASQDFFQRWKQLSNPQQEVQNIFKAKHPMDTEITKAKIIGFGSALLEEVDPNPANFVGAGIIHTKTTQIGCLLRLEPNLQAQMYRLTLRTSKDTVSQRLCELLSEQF

Molecule QSEEQVSKNLFGPPAAAAFDHED (peptide, UniProt O14526 426-448, looked up) [FCHO1 C peptide, LES to AAA] yielded a Kd in assay [1] greater than 500 µM.

B1: FCHO2-N1+N2 EEK mutant (domain or fragment)
chain: NIPDVDAAGYSIAPETNQNDTKENHFYSSSDSDSEDEEPKKYRIEIKPMHPNNSHHTMASLDELKVSIGNITLSPAISRHS
Consider B1, for which, in assay [2], the “fold reduction of binding against FCHO2-N1+N2 wild type” value is 5 fold.
